Laboratory results from publication PMC3931812.

Columns and labels:
Assay in all cases: other fluorescence titration; Ca2+ titration at saturating CaM: 0.5 µM FRET biosensor, 2 µM X-Rhod5F, 0.1 mg/mL BSA, 0.25 mM Br2BAPTA (3 mM BAPTA and 700 µM CaM for the SMD1 biosensors), 25 mM Tris, 100 mM KCl, pH 7.5, 22°C; start nominally Ca2+-free; free Ca2+ from X-Rhod5F; EC50(Ca2+) from Hill fits
BSGPER_(150–175) (human) = BSGPER_(150–175) (human) (UniProt Q99527)
BSGPER_(242–259) (human) = BSGPER_(242–259) (human) (UniProt Q99527)
BSGPER_(330–351) (human) = BSGPER_(330–351) (human) (UniProt Q99527)
BSGPER_(83–93) (human) = BSGPER_(83–93) (human) (UniProt Q99527)

- EC50(Ca2+) of complex formation (BSGPER_(150–175) (human)): 2380 nM
- EC50(Ca2+) of complex formation (BSGPER_(242–259) (human)): 5150 nM
- EC50(Ca2+) of complex formation (BSGPER_(330–351) (human)): 750 nM
- EC50(Ca2+) of complex formation, species 1 (BSGPER_(83–93) (human)): 130 nM
- EC50(Ca2+) of complex formation, species 2 (BSGPER_(83–93) (human)): 3710 nM
Substance: Calmodulin (CaM), recombinant, from the rat CaMI gene (from UniProt P0DP29 1-149) (natural protein)
